This series can be described thus: yeast display, Sf9 membrane polyspecificity reagent, FACS + sequencing; frameworks hold sequencing errors. The essentials:
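Sorting gates, low and high (top ~1%), were placed on anti-HA fluorescence to track expression and on streptavidin fluorescence to track reagent binding. A clone's polyreactivity label is taken from the gate it came out of. The reagent was 10% biotinylated, detergent-solubilized Sf9 membrane, applied for 1 hour at 4 °C to galactose-induced yeast display cells.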
With “QVQLVESGGGLVQAGGSLRLSCAASGSTLYWNAMGWYRQAPGKERELVAGISIGGRTNYADSVKGRFTISRDNAKNTVYLQMNSLKPEDTAVYYCNAENTYLGSRYRPYNYWGQGTQVTVSS”, the “polyreactivity (PSR sort gate)” value is recorded as “low polyreactivity”.

As to “QVQLVESGGGLVQAGGSLRLSCAASGYIFGWYDMGWYRQAPGKERELVAAIDSGGNTYYADSVKGPFTISRDNAKNTVYLQMNSLKPEDTAVYYCNADYWGWSGPPYEYWGQGTQVTVSS”, the “polyreactivity (PSR sort gate)” value was “high polyreactivity”.

Consider “QVQLVESGGGLVQAGGSLRLSCAASGSIFDRNAMGWYRQAPGKERELVATITWSGVSTYYADSVKGRFTISRDNAKNTVYLQMKSLKPEDTAVYYCYADYSYRHWYDPGQYGQAMGYWGQGTKVTVSS”, for which the “polyreactivity (PSR sort gate)” value was “low polyreactivity”.

With “HAQLQESGGGLVQAGGSLRRSCAASGSIFRFSGMGWYRRAPGKERELVASIGFGSITYYADRVKGRFTMSRDNANNTVYLQKNSLKPEDTAVDYCAVQVQDESWLDYWGQGTQVTVSC”, the “polyreactivity (PSR sort gate)” value is “low polyreactivity”.

Turning to “QVQLVESGGGLVQAGGSLRLSCAASGSIFDVNAMGWYRQAPGKERELVAAITWSGGITYYADSVKGRFTISRDNAKNTVYLQMNSLKPEDTAVYYCNVYVTAGEEDEYWGQGTQVTVSS”, the “polyreactivity (PSR sort gate)” value is listed as “low polyreactivity”.

For the sequence “QVQLVESGGGLVQAGGSLRLSCAASGRTFAYYAMGWYRQAPGKERELVAAITTSGTRTYYADSVKGRFTISRDTAKNTVYLQMNSLKPEDTAVYSCAARYRYQYEFDYWGQGTQVTVSS”, the “polyreactivity (PSR sort gate)” value is on record as “high polyreactivity”.

“QVQLVESGGGLVQAGGSLRLSCAASGRTFDGYSMGWYRQAPGKEREFVASINGGGSTNYADSVNGRFTISRDNAKNTVYLQMNSLKPEDTAVYYCAAESKGTWLYLYNSPHYYWGQGTQVTVSS”: the “polyreactivity (PSR sort gate)” value is “low polyreactivity”.

With “QVQLVESGGGLVQAGGSLRLSCAASGRIFVVNDMGWYRQAPGKERELVAAINSGGRTNYADSVKGRFTISRDNAKNTVYLQMNSLKPEDTAVYYCNAKRTGPWFLHVPVYYWGQGTQVTVSS”, the “polyreactivity (PSR sort gate)” value is “low polyreactivity”.

For the sequence “QVQLVESGGGLVQAGGSLRLSCAASGSTFGYNAMGWYRQATGKERELVARITSSGGSTYYADSVKGRFTISRDNAKNTVYLQMNILKPEDTAVYYCAAGYLSGNYARYGYWGQGTQVTVSS”, the “polyreactivity (PSR sort gate)” value was “high polyreactivity”.

With “QVQLVESGGGIVQAGGSLRLSCAASGSIFIDYAMGWYRQAPGKERELVAAISWRGGSTYYADSVKGRFTISRDNAKNTVFLQMIRLKPEDTAVYYCAGARRSKRHEYYLGQGTQVTVSS”, the “polyreactivity (PSR sort gate)” value is listed as “high polyreactivity”.

With “QVQLVESGGGLVQAGGSLRLSCAASGIIFARYAMGWYRQAPGKERELVAAISNRGTSTYYADSVKGRFTISRDNAKNTVYLQMNSLKPEDTAVYYCKRVKDGYWGQGTQVTVSS”, the “polyreactivity (PSR sort gate)” value is recorded as “high polyreactivity”.

Regarding “QVQLVESGGGLVQAGGSLRLSCAASGIIILWNAMGWDRQAPGKERELVATISWTDGSTSYADSVKGRFTISRDNAKNTVYLQMNSLKPEDTAVYYCNVRHKSYRKSDYWGQGTQVTVSS”, the “polyreactivity (PSR sort gate)” value is reported as “low polyreactivity”.

Turning to “QVQLVESGGGLVQAGGSLRLSCAASGSNFPLNPMGWYRPSPGKERELVAAISSSTGSTSYADSVKGRFTISRDNAKNTVYLQMNSLKPEDTAVYYCAAETPYIVDYWGQGTQVTVSS”, the “polyreactivity (PSR sort gate)” value was “high polyreactivity”.

In the case of “QVQLVESGGGLVQAGGSLRLSCAASGLIFSAYDMGWYRQAPGKERELVASITSGGSTYYADSVKGRFTISRDNAKNTVYLQMNSLKPEDTAVYYCNADGGWYQYRWRYIEGEYWGQGTQVTLSS”, the “polyreactivity (PSR sort gate)” value is recorded as “low polyreactivity”.

Take “QVQLVESGGGLVHAGGSLRLSCAASGLIFHHNAMGWYRQAPGKERELVAAISRSAGSTYYADSVKGRFTISRDNAKNTVYLQMNSLKPEDTAVYYCAKRPTPTSKYDTVGYGYWGQGTQVTVSS”: the “polyreactivity (PSR sort gate)” value is recorded as “low polyreactivity”.

With “QVQLVESGGGLVQAGGSLRLSCAASGYTFTTYAMGWYRQAPGKEREFVASIRWRGGNTYYADSVKGRFTISRDNAKNTVYLQMNSQKREDTAVYYCARRVDYISSKYGYWGQGTQVTVSS”, the “polyreactivity (PSR sort gate)” value was “high polyreactivity”.

“QVQLVESGGGLVQAGGSLRLSCAASGSIIDQYVMGWYRQAPGKERELVADISIRGGSTYYADSVKGRFTISRDNAKNTVYFQMNSLKPEDTAVYYCNADEWWGYPWEEDDYWGQGTQVTVSS”: the “polyreactivity (PSR sort gate)” value is listed as “low polyreactivity”.

With “QVQIVESGGGLVQARCSLRLSFSASGYTFNNYAKGWYRQAPGTERELVAAISSSGGSTYFADSVKGRFTISRDNAKNTVYVQMNSLKPEDTAVYYCAARPFGLGDYRGYYYWGQGTQVTVSS”, the “polyreactivity (PSR sort gate)” value was “low polyreactivity”.

With “QVQLQERGGGLVQAGGDLRLSCAASGNIFRDYIMGWYRQAPGKEREFVAGIDRGANTNYADSVKGRFTISRDNAKNTVYLQMNSLKPEDTAVYYCAVHTAIVPDFIYWGQGTQVTVSS”, the “polyreactivity (PSR sort gate)” value is “low polyreactivity”.

As for “QVQLVESGGGLVQAGGSLRLSCAASGSTFYYYAMGWYRQAPGKERELVAAIDRDDRTNYADSVKGRFTISRDNAKNTVYLQMNSLKPEDTAVYNSAADSSERRLLDFDYWGQGTQVTVSS”, the “polyreactivity (PSR sort gate)” value is reported as “low polyreactivity”.

On to “QVQLVESGGGLVQAGGSLRLSCAASGSIFRGKAMGWSRQAPGKERELVAGINRAGSTKYADSVKGRFTISRDNAKNTVYLQMNSLKPEDTAVYYCAAVRYERGLWSDYWGLGTQVTVSS”, for which the “polyreactivity (PSR sort gate)” value is “high polyreactivity”.

Consider “QVQLVESGGGLVQAGGSLRLSCAASGNIFFGYAMGWYRQAPGKEREYVATITKIGGSTYYADSVKGRFTISRDNAKNTVYLQMNSLKPEDTAVYYCAARLGHSVNPGGERWDVEYWGQGTQVTVSS”, for which the “polyreactivity (PSR sort gate)” value is reported as “low polyreactivity”.

Take “QVQLVESGGGLVQAGGSLRLSCAASGSIFRPNAMRWYRQAPGKERELVAAISSGDSTNYADSVKGRFTISRDNAKNTVYLLMNSLKAEDTAVYYCNTDKYSESYRSYEYWGQGTQVTVSS”: the “polyreactivity (PSR sort gate)” value is “low polyreactivity”.

With “QVQLVESGGGIVQAGGSLRLSCAASGGIFWRYAMGWYRQAPGKERELVAAISSRGGSTYYADSVKGRFTISRDNAKNTVYLQMNSLKPEDTAVYYCAADRRYAESGYYWGHGTQVTVSS”, the “polyreactivity (PSR sort gate)” value is “high polyreactivity”.

Consider “QVQLVESGGGLVQAGGSLRLSCAASGSIVIINTMGWYRQAPGKERELVAAISWGGTDTNYADSVKGRFTISRDNAKNTVYVQMNSLKPEDTAVYYCNTDQDLVRSYDYWGQGTQVTVSS”, for which the “polyreactivity (PSR sort gate)” value is “low polyreactivity”.

For “QVQLVESGGRLFQAGGSLRLSCAASGFTTSAYTKGWYRQAPGKERELVAVISARGGSTSYADSVKGRFTISRDNAKNPVYLQMKCRKPEDTAVFYCAARGRAHWHYDYWGHGTQVTVSS”, the “polyreactivity (PSR sort gate)” value was “high polyreactivity”.

“QVQLVESGGGLVQAGGSLRLSCAASGRTFTSNAMGWSRQAPGKERELVAAIDDGGSTNYADSVKGRFTISRDNAKNTVYLQMNSLKPEDTAVYYCNAPITWQYRGFRRRFDYWGQGTQVTVSS”: the “polyreactivity (PSR sort gate)” value is “low polyreactivity”.

“QVQLVESGGALVQAGGSLRLSCAASGSTLAYNAMGWYRQAPGKERELVAGIRGSGGSTYYADSVKGRFTISRDNAKNTVYLQMNSLKPEDTAVYYCNADSSVGHPPDGEYWGQGTQVTVSS”: the “polyreactivity (PSR sort gate)” value is given as “low polyreactivity”.

For “QVQLVESGGGLVQAGGSLRLSCAASGRIFYPYTMGWYRQAPGKERELVAAISSGSRTNYADSVKGRFTISRDNAKNTVYLQMNSLKPEDTAVYYCAAAAYSYKRVYQTFTFGYWGQGTQVTVSS”, the “polyreactivity (PSR sort gate)” value is “high polyreactivity”.

Take “QVQLVESGGGLVQAGGSLRLSCAASGFSFSRNAKGWYRQAPGKERELVAAISIRGGSTYYADSVKGRFTISRDNAKNTVYLQMNILKPEDTAVYYCNAYDLYRQRNGYGYWGQGTQVTVSS”: the “polyreactivity (PSR sort gate)” value was “high polyreactivity”.

Take “QVQLVESGGGLVLAGGSLRLSCAASGFILLYYAMGWYREATGKERELVAAISWTGGRTYYADSVKGRFTISRDNAKNTVYLQMNRLKPEDTAVYYCNTFKFFCRKYGYWGQGTQVTVSS”: the “polyreactivity (PSR sort gate)” value is “low polyreactivity”.

With “QVQLVESGGGLVQAGGSLRLSCAASGRIFLQYAMGWYRPAPGKERELVAAISRSGGSTYYADSVKGRFTISRDTAKNSVYLQMNSQKPEDTAVYYCAAALFGNRYYYWGQGTQVTVSS”, the “polyreactivity (PSR sort gate)” value is “low polyreactivity”.

For the sequence “QVQLVESGGGLVQAGGSLRLSCAASGSTFYRNAMGWYRQAPGKEREFVADITLGGGSTYYADSVKGRFTISRDNAKNTVYLQMNSRKPEDTAVYYCAVDYWQLNYDYWGQGTQVTVSS”, the “polyreactivity (PSR sort gate)” value is listed as “low polyreactivity”.

“QVQLVESGGGLVQAGGSLRLSCAASGGTFSSNAMGWYRQAPGKERELVAAISGSGDRTYYADSVKGRFTISRDNAKNTVYLQMNSLKPEDTAVYYCAKTLHKGSRGRYNYWGQGTQVTVSS”: the “polyreactivity (PSR sort gate)” value is reported as “high polyreactivity”.

Regarding “QVQLVESGGGLVQAGGSLRLSCAASGRIFYRYAMGWYRQAPGKERELVATITNGGSTNYADSVKGRFTISRDNAMITVYLQMNSLKPEDTAVYYCAASRSRYSVNCYNYWGQGTQVTLSS”, the “polyreactivity (PSR sort gate)” value is given as “high polyreactivity”.

“QVQLVEAGGGLVQAGGSLRLSCAASGIIFYLYTMGWYRPAPGKERELVAAISSSDGSTYYADSVKGRFTISRDNAKNTVYLQMNSLKPEDTAVYYCAAEYRGYLDDYYYWGQGTQVTVSS”: the “polyreactivity (PSR sort gate)” value is on record as “high polyreactivity”.

On to “QVQLVESGGGLVQAGGSLRLSCAASGFIFAYYAMGWYRQAPGKERELVAAISKRGGSTYYADSVKGRFTISRDNAKNTVYLQMNSLKPEDTAVYYCAADGHGGYGYWGQGTQVTVSS”, for which the “polyreactivity (PSR sort gate)” value is listed as “high polyreactivity”.

As for “QVQLVESGGGLVQAGGSLRLSCAASGRIFHWYTMGWYRQAPGKERELVATITDGGSTYYADSVKGRFTISRDNAKNTVYLQMNSLKPEDTAVYYCAARKIGTRRLRYPYYIFGYWGQGTQVTVSS”, the “polyreactivity (PSR sort gate)” value was “high polyreactivity”.

“QVQLVESGGGLVQAGGSLRLSCAASGFIFRSYAMGWYRQAPGKERELVAAISDGGGSTYYADSVKGRFTISRDNAKKTVYLQMNSLKPEDTAVYYCNAVYHPKGPSGYGYWGQGTQVTVSS”: the “polyreactivity (PSR sort gate)” value was “low polyreactivity”.

As for “QVQLVESGGGLVQAGGSLRLSCAASGSTFWAYVMGWYRQAPGKERELVAAISKSGVRTHYADSVKGRFTISRDNAKNTVYLQMNSLKPEDNAVYYCAAGGVGNLDDYWGQGTQVTVSS”, the “polyreactivity (PSR sort gate)” value is on record as “high polyreactivity”.

In the case of “QVQLVESGGGLVQAGGSLRLSCAASGRIFYFNAMGWYRQAPGKERELVADISTGGRTNYADSVKGRFTISRDNAKNTVYLQMNSLNPEDTAVYYCNAEPYTSSGGYRGYDFDYWGQGTQVTVSS”, the “polyreactivity (PSR sort gate)” value is listed as “low polyreactivity”.

Source of the values: the nanobody polyreactivity screen of Harvey et al. (2022).
